Measurements taken from US20240010735A1 (EISAI R AND D MANAGEMENT, published 2024).

Tests used:
Assay in all cases: ELISA: Fc-His proteins (1 nM) captured on anti-6-His antibody, antibody B 10 µg/mL with human IgG 100 µg/mL, HRP anti-human kappa light chain antibody, OD450 as % of mouse EphA4-Fc-His
[1] = biological target: T1, mouse EphB3 extracellular region-Fc-His protein (mouse; human, UniProt P54754 30-554)
T1 construct: extracellular domain; not shown: Fc region of human IgG1; histidine tag
T1 sequence (looked up): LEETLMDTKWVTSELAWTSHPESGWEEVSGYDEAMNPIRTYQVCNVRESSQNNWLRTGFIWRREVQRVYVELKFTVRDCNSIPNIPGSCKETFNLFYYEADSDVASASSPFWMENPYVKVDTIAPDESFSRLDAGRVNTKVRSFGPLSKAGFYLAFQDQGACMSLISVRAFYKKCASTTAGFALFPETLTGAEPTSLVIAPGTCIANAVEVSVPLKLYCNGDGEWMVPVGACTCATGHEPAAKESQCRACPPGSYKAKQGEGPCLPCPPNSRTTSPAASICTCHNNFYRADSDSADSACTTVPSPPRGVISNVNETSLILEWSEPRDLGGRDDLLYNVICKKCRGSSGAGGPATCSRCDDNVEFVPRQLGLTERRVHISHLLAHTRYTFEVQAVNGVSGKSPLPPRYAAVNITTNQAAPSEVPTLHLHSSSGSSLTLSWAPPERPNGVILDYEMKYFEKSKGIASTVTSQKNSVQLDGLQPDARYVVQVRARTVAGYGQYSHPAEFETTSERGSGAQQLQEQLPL

[2] = biological target: T2, mouse EphA2 extracellular region-Fc-His protein (mouse, UniProt Q03145 26-538)
T2 construct: extracellular domain; Cloned into a pcDNA 3.1 vector separately from the other mouse Eph receptors; not shown: Fc; histidine tag

[3] = biological target: T3, mouse EphB1 extracellular region-Fc-His protein (mouse; human, UniProt Q8CBF3 18-540)
T3 construct: extracellular domain; not shown: Fc region of human IgG1; histidine tag
T3 sequence (looked up): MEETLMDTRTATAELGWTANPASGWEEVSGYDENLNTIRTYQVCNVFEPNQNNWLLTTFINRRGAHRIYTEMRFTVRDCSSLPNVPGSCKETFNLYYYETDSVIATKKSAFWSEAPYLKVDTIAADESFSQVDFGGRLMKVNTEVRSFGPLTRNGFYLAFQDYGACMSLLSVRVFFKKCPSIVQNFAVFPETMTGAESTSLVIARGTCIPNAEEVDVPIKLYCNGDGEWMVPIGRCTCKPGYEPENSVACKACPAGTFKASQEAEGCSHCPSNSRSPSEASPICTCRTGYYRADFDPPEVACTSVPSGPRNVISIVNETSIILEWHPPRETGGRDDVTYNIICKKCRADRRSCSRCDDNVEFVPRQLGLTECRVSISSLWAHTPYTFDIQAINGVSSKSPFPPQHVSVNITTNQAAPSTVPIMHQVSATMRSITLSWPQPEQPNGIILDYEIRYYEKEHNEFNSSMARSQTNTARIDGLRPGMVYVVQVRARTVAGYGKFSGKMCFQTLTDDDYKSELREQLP

[4] = biological target: T4, mouse EphA7 extracellular region-Fc-His protein (mouse; human, UniProt Q61772 28-555)
T4 construct: extracellular domain; not shown: Fc region of human IgG1; histidine tag
T4 sequence (looked up): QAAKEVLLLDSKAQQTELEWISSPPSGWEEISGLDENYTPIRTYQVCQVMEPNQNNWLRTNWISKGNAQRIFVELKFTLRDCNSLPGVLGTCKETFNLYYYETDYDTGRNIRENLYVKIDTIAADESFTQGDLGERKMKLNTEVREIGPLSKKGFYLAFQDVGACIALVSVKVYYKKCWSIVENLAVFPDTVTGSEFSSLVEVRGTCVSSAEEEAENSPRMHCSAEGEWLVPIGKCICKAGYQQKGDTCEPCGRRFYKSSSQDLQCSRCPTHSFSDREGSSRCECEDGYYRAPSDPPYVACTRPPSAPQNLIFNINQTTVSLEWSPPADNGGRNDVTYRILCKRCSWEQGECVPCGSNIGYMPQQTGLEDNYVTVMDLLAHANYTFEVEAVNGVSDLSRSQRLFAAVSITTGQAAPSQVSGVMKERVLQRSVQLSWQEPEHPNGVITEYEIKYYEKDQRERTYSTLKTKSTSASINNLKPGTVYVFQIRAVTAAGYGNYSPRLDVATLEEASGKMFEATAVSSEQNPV

Measured: binding result

T2 sequence (Q03145 26-538): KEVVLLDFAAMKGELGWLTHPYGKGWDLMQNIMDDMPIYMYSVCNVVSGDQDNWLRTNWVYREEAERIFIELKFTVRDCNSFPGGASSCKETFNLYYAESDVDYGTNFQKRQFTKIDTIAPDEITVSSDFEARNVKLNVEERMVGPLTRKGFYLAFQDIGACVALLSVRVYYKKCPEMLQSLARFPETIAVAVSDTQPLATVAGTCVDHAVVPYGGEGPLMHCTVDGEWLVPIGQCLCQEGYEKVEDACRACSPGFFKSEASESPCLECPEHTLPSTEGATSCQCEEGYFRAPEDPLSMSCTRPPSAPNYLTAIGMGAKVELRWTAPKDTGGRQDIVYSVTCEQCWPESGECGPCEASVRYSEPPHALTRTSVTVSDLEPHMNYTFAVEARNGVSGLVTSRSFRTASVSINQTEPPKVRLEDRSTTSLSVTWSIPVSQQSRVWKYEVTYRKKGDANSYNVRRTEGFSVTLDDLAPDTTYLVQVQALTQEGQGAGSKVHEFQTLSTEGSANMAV

B1: humanized anti-EphA4 monoclonal antibody (antibody B) (antibody, human IgG2, V domains shown)
VH: QVQLVESGGGVVQPGRSLRLSCAVSGFSLTRFGVHWVRQAPGKGLEWVAVIWRGGSTDYNAAFMSRLTISKDNSKNTVYLQMNSLRAEDTAVYYCAKESLFGVYYDYGYYSMDYWGQGTTVTVSS
VL: DIQMTQSPSSLSASVGDRVTITCRASQEISGYLSWLQQKPGKAPKRLIYAASTLDSGVPSRFSGSRSGTEYTLTISSLQPEDFATYYCLQYASYPLTFGGGTKVEIKR
notes: expressed in Expi293F cells; also called humanized antibody of antibody A; HK2-42 / L1-8
no binding (tested: 10 µg/mL): all assays above
